Test results published in patent US11827701B2, “IL-6 binding molecules” (argenx BV, priority 2012, dated 2023).
Several values for one entry are separate records, joined by “and”; a condition that tells them apart may be missing. Equal values may be shown once.

Legend:
human IL-6 [1] = biological target: T1, human IL-6 (Homo sapiens, UniProt P05231); test: IL-6 neutralizing bioassay, B9 cell proliferation ([3H]thymidine); format: cell-based; details: B9 cells; relative to 68F2 average IC50
T1 construct: host or cells: IL-6 added from outside to murine 7TD1 hybridoma cells
Experimental: The in vitro efficacy of clones 129D3, 68F2, 61H7, 133A9, 133H2, 133E5 and 132E7 were determined using a cell-based neutralizing bioassay using the B9 cell line, essentially as described in Helle et al. 1988, Eur. J. Immunol 18; 1535-1540. B9 cells are derived from the murine B cell hybridoma cell line B13.29, which require IL-6 for survival and proliferation and respond to very low concentrations of human IL-6. […] B9 cells were seeded in IL-6-free medium at 5000 cells/200 microl in flat-bottom wells in the presence of IL-6, with and without antibodies. Proliferation was measured by a [3H]thymidine pulse at 64-72 h.

human IL-6 [2] = biological target: T1, human IL-6; test: IL-6 neutralizing bioassay, 7TD1 cell proliferation; format: cell-based; details: relative to 68F2
Experimental: The in vitro efficacy of clones 133E5, 133A9, 133H2, 111B1, 104C1, 129D3, 68F2, 61H7, were also determined using a cell-based neutralizing bioassay using the 7TD1 cell line, essentially as described in Van Snick et al. PNAS; 83, :9679 (1986), which is hereby incorporated by reference in its entirety. 7TD1 cells are a murine hybridoma cell line formed by fusion of the mouse myeloma cell line Sp2/0-Ag14 with spleen cells from a C57BL/6 mouse immunized with Escherichia coli lipopolysaccharides three days before fusion. The 7TD1 cell line is dependent on IL-6 for its growth and IL-6 withdrawal leads to cell death by apoptosis.
Briefly, 7TD1 cells (7.10E3) were incubated for 2-4 h in RPMI1640 medium+10% FCS before addition of IL-6 (75 pg/ml final concentration) in microtiter plates (200 ul final volume). The cells were incubated 3 days at 37C, before washing with PBS and addition of 60 ul of substrate solution (p-nitrophenyl-N-acetyl-β-D-glucosaminide (Sigma N-9376); 7.5 mM substrate in 0.05 M NaCitrate pH 5; 0.25 vol % triton X-100) for 4 h. The enzymatic reaction was stopped with 90 ul of stop solution (100 mM glycine+10 mM EDTA pH 10.4) and OD at 405 nm measured.
The VH and VL of the germlined versions of 68F2 were recloned in pUPE Heavy Chain and Light Chain expression vectors, respectively, for transient expression of full-length IgG1 antibodies. After transient expression in HEK293E cells, IgG1 antibodies were purified with protein A and quantified by measurement of OD280. Table 19 below summarizes the production levels of the germlined derivatives together with the levels of the 68F2 parental antibody. Potencies (in pM) were also measured in a 7TD1 based proliferation assay for each antibody.

[3] = biological target: biotinylated (prokaryotic) IL-6 (Homo sapiens, UniProt P05231); test: Surface plasmon resonance (Biacore), biotinylated IL-6 captured on streptavidin sensor chip; format: binding; details: purified Fab
Experimental: (§1) The binding kinetics of IL-6-specific Fabs that were able to cross-compete with the B-E8 antibody was assessed using surface plasmon resonance (Biacore). Specifically, biotinylated (prokaryotic) IL-6 was captured on a streptavidin biacore sensor chip (CM5-SA) and different concentrations of purified Fabs were injected during 3 minutes following by a 5 minute wash with buffer. From the washing phase the off-rate (kd) was determined, while from the injection phase the on-rate (ka) was calculated using the concentration and off-rate as parameters. […] The binding kinetics of antagonistic purified Fabs (Table 3) and periplasmic fractions of Fab-expressing bacteria (Table 4) were also evaluated by surface plasmon resonance (Biacore) using both bacterially and eukaryotically produced human IL-6 directly coated on a CM5 chip. The Fabs tested had off-rates between 6×10^−4 and 2×10^−5 s^−1.

[4] = biological target: T2, eukaryotically produced human IL-6 (Homo sapiens, UniProt P05231); test: Surface plasmon resonance (Biacore), eukaryotically produced human IL-6 coated on CM5 chip; format: binding; details: purified chain-shuffled Fabs
T2 construct: purchased Humanzyme HZ-1044; host or cells: Human Embryonic kidney cells
Experimental: as §1
(§2) VL chain shuffling was used to improve the affinity of the Fabs 17F10, 18C7, 18C9, 18C11, 20A4, 29B11, 16D2 and 28A6. In this method, the heavy chain of these clones (as a VHCH1 fragment) was reintroduced into the primary phagemid-light chain library (see Example 1). Affinity selections were performed to select for chain shuffled Fabs with an improved affinity for IL-6. The binding kinetics of chain shuffled Fabs were evaluated by surface plasmon resonance (Biacore) using both bacterially and eukaryotically produced human IL-6, and cynomolgus monkey IL-6 (Tables 5-7). The VH and VL amino acid sequences of exemplary IL-6-specific Fabs selected by the VL chain shuffling method are set forth in Table 14 below.
(§3) VH chain shuffling was also used to improve the affinity of the Fab 24D10. In this method, the light chain of 24D10 was reintroduced into the primary phagemid-heavy chain library (see Example 1) and selected using an off-rate assay. In this type of selection, the phage were allowed to bind to antigen on a substrate for 1.5 to 2 hours. At round 2, after 15 washes with PBS-Tween, an additional wash was performed with the presence of excess soluble IL-6. […] This procedure avoids re-binding of such phage to the coated target. […] The binding kinetics of chain shuffled Fabs and the benchmark antibodies, BE8 and GL18, were evaluated by surface plasmon resonance (Biacore) using both bacterially and eukaryotically produced human IL-6 (Tables 8 and 9). The VH and VL amino acid sequences of exemplary IL-6-specific Fabs selected by the VH chain shuffling method are set forth in Table 14 below. […]

[5] = biological target: T3, bacterially produced human IL-6 (Homo sapiens, UniProt P05231); test: Surface plasmon resonance (Biacore), bacterially produced human IL-6 coated on CM5 chip; format: binding; details: purified chain-shuffled Fabs
T3 construct: His
Experimental: as §1, §2, §3

cynomolgus monkey IL-6 = biological target: T4, cynomolgus monkey IL-6 (Macaca fascicularis, UniProt P79341); test: Surface plasmon resonance (Biacore), cynomolgus monkey IL-6; format: binding; details: purified chain-shuffled Fabs
T4 construct: His
Experimental: as §2

biotinylated (prokaryotic) IL-6, sequence (P05231 30-212): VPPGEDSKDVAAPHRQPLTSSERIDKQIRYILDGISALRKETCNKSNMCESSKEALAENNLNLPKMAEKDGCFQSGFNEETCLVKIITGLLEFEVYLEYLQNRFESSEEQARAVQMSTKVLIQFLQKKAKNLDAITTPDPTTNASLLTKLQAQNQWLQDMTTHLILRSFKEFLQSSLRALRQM
T1 sequence (P05231 30-212): as above
T2 sequence (P05231 30-212): as above
T4 sequence (P79341 28-212): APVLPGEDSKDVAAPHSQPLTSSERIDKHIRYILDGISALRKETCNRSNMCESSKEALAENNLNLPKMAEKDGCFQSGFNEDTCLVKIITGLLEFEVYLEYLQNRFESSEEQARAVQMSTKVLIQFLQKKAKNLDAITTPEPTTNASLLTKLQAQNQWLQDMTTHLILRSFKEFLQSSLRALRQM
T3 sequence (P05231 30-212): as the sequence (P05231 30-212) above

Molecule | Rel. Potency (human IL-6 [1]) | Rel. Potency (human IL-6 [2]; Exp 22.06 (7TD1)) | Rel. Potency (human IL-6 [2]; Exp 29.06 (7TD1)) | other results
61H7 (12.8) (antibody, V domains shown) VH: EVQLVESGGGLVQPGGSLRLSCAASGFTFSSYRMYWVRQPPGKGLEWVSAISAGGGSTYYGDSVKGRFTISRDNAKNTVYLQMNSLKPEDTAVYYCANRAGWGMGDYWGQGTQVTVSS VL: QTVVTQEPSLSVSPGGTVTLTCGLSSGSVTASNYPGWFQQTPGQAPRALIYSTNDRHSGVPSRFSGSISGNKAALTITGAQPEDEADYYCALDIGDITEFGGGTHLTVLG | 0.4 | – | – | –
61H7 (A8.11) (antibody, V domains shown) VH: EVQLVESGGGLVQPGGSLRLSCAASGFTFSSYRMYWVRQPPGKGLEWVSAISAGGGSTYYGDSVKGRFTISRDNAKNTVYLQMNSLKPEDTAVYYCANRAGWGMGDYWGQGTQVTVSS VL: QTVVTQEPSLSVSPGGTVTLTCGLSSGSVTASNYPGWFQQTPGQAPRALIYSTNDRHSGVPSRFSGSISGNKAALTITGAQPEDEADYYCALDIGDITEFGGGTHLTVLG | 0.5 | – | – | –
129D3 (17.06) (antibody, V domains shown) VH: EVQLQESGPGLVKPSQTLSLTCTVSGGSITSRYYAWSWIRQPPGKGLEWIGVIDYDGDTYYSPSLKSRVSISWDTSKNQFSLKLSSVTPADTAVYYCARDPDVVTGFHYDYWGQGTMVTVSS VL: QSALTQPPSVSGTPGQSVTISCAGANNDIGTYAYVSWYQQLPGTAPKLMIYKVTTRASGIPDRFSGSKSGNTASLTISGLQAEDEADYYCASYRNFNNAVFGTGTKLTVL | – | 1.02 | – | –
68F2 (A8.10) (antibody, V domains shown) VH: EVQLQESGPGLVKPSQTLSLTCTVSGGSITTRYYAWSWIRQPPGKGLEWMGVIDYDGDTYYSPSLKSRTSISWDTSKNQFSLQLSSVTPEDTAVYYCARDPDVVTGFHYDYWGQGTQVTVSS VL: QSALTQPPLVSGTPGQTVTISCAGANNDIGTYAYVSWYQQLPGTAPKLLIYKVTTRASGIPSRFSGSKSGNTASLTISGLQSEDEADYYCASYRNFNNAVFGRGTHLTVLG | 1.3 | – | – | –
127E2 (24.06) (antibody, V domains shown) VH: EVQLQESGPGLVKPSQTLSLTCTVSGGSITTRYYAWSWIRQPPGKGLEWIGVIDYDGDTYYSPSLKSRVTISVDTSKNQFSLQLSSVTAEDTAVYYCARDPDVVTGFHYDYWGQGTQVTVSS VL: QSALTQPPSVSGSPGQTVTISCAGANNDIGTYAYVSWYQQPPGTAPKLLIYKVTTRASGVPDRFSGSKSGNTASLTISGLQAEDEADYYCASYRNFNNAVFGGGTHLTVL | – | 0.58 | – | –
68F2 (Large batch) (antibody, V domains shown) VH: EVQLQESGPGLVKPSQTLSLTCTVSGGSITTRYYAWSWIRQPPGKGLEWMGVIDYDGDTYYSPSLKSRTSISWDTSKNQFSLQLSSVTPEDTAVYYCARDPDVVTGFHYDYWGQGTQVTVSS VL: QSALTQPPLVSGTPGQTVTISCAGANNDIGTYAYVSWYQQLPGTAPKLLIYKVTTRASGIPSRFSGSKSGNTASLTISGLQSEDEADYYCASYRNFNNAVFGRGTHLTVLG | – | – | 0.43 | –
68F2 (12.9) (antibody, V domains shown) VH: EVQLQESGPGLVKPSQTLSLTCTVSGGSITTRYYAWSWIRQPPGKGLEWMGVIDYDGDTYYSPSLKSRTSISWDTSKNQFSLQLSSVTPEDTAVYYCARDPDVVTGFHYDYWGQGTQVTVSS VL: QSALTQPPLVSGTPGQTVTISCAGANNDIGTYAYVSWYQQLPGTAPKLLIYKVTTRASGIPSRFSGSKSGNTASLTISGLQSEDEADYYCASYRNFNNAVFGRGTHLTVLG | 0.8 | – | – | –
127E2 (17.06) (antibody, V domains shown) VH: EVQLQESGPGLVKPSQTLSLTCTVSGGSITTRYYAWSWIRQPPGKGLEWIGVIDYDGDTYYSPSLKSRVTISVDTSKNQFSLQLSSVTAEDTAVYYCARDPDVVTGFHYDYWGQGTQVTVSS VL: QSALTQPPSVSGSPGQTVTISCAGANNDIGTYAYVSWYQQPPGTAPKLLIYKVTTRASGVPDRFSGSKSGNTASLTISGLQAEDEADYYCASYRNFNNAVFGGGTHLTVL | – | – | 0.37 | –
68F2 (#12.9) (antibody, V domains shown) VH: EVQLQESGPGLVKPSQTLSLTCTVSGGSITTRYYAWSWIRQPPGKGLEWMGVIDYDGDTYYSPSLKSRTSISWDTSKNQFSLQLSSVTPEDTAVYYCARDPDVVTGFHYDYWGQGTQVTVSS VL: QSALTQPPLVSGTPGQTVTISCAGANNDIGTYAYVSWYQQLPGTAPKLLIYKVTTRASGIPSRFSGSKSGNTASLTISGLQSEDEADYYCASYRNFNNAVFGRGTHLTVLG | – | – | 1.08 | Rel. Potency (human IL-6 [2]; Exp 7.07 (7TD1)): 0.93
129F2 (17.06) (antibody, V domains shown) VH: EVQLQESGPGLVKPSQTLSLTCTVSGGSITSRYYAWSWIRQPPGKGLEWIGVIDYDGDTYYSPSLKSRVTISWDTSKNQFSLKLSSVTAEDTAVYYCARDPDVVTGFHYDYWGQGTMVTVSS VL: QSALTQPPSVSGTPGQTVTISCAGANNDIGTYAYVSWYQQLPGTAPKLMIYKVTTRASGIPDRFSGSKSGNTASLTISGLQSEDEADYYCASYRNFNNAVFGGGTKLTVL | – | 1.14 | – | –
128G3 (17.06) (antibody, V domains shown) VH: EVQLQESGPGLVKPSQTLSLTCTVSGGSITTRYYAWSWIRQPPGKGLEWIGVIDYDGDTYYSPSLKSRTTISVDTSKNQFSLKLSSVTPEDTAVYYCARDPDVVTGFHYDYWGQGTMVTVSS VL: QSALTQPPSVSGAPGQTVTISCAGANNDIGTYAYVSWYQQLPGTAPKLLIYKVTTRASGVPDRFSGSKSGNTASLAISGLQAEDEADYYCASYRNFNNAVFGGGTHLTVL | – | 0.60 | 0.52 | –
18C7: antagonistic IL-6-specific Fab clone from immunized llama (antibody, listed as Lama glama, V domains shown) VH: EVQLVESGPGLVKPSQTLSLTCTVSGGSITASFDAWSWIRQPPGKGLEWMGVIAYDGSTYYSPSLKSRTSISRDTSKNQFSLQLSSVTPEDTAVYYCARKSSWLIGYGMDYWGKGTLVTVSS VL: QAGLTQPSALSVTLGQTAKITCQGGSLGSSYAHWYQQKPGQAPVLVIYDDDSRPSGIPERFSGSSSGGRATLTISGAQAEDEGDYYCQSADSSGNAAVFGGGTHLTVLG | – | – | – | KA [3]: 5.7e+07 M⁻¹; Rmax [3]: 43.9 RU; ka [3]: 105000 M⁻¹ s⁻¹; kd [3]: 0.00185 s⁻¹; Koff eukIL-6 [4]: 0.001 s⁻¹ and 0.00082 s⁻¹; Koff HIS-huIL-6 [5]: 0.0011 s⁻¹; Koff HIS-cyIL-6 (cynomolgus monkey IL-6): 0.00063 s⁻¹ and 0.00069 s⁻¹
